These results are taken from PMC8490154, “Mass-sensitive particle tracking to elucidate the membrane-associated MinDE reaction cycle” (Nature Methods, 2021).

Several values for one entry are separate records, joined by “and”; a condition that tells them apart may be missing. Equal entries are not always repeated. Where two headings read alike, the source gives them in different places.

For data set [1], the target named is MinD (Escherichia coli) (UniProt P0AEZ3). In words: mass-sensitive particle tracking (MSPT, iSCAT) on a supported lipid bilayer; MinD or MinD D40A alone, 50-200 nM, 0.5 mM ATP, Min buffer, SLB of 70 mol% DOPC / 30 mol% DOPG, room temperature (23 ± 2 °C); particle densities 0.03-0.8 µm^-2; monomers (33 kDa) not quantitatively detectable.
For data set [2] the target is unchanged. The data set is described as above. The source holds these as a separate data set.
Data set [3] concerns the molecule itself. In words: mass-sensitive particle tracking (MSPT, iSCAT) on a supported lipid bilayer; co-reconstitution of equimolar MinD and MinE, 50-200 nM each, 0.5 mM ATP, Min buffer, SLB of 70 mol% DOPC / 30 mol% DOPG, room temperature; particle densities 0.1-0.8 µm^-2.
Data set [4] deals with the molecule itself. Briefly: mass-sensitive particle tracking (MSPT, iSCAT) on a supported lipid bilayer; MinD or MinD D40A alone, 50-200 nM, 0.5 mM ATP, Min buffer, SLB of 70 mol% DOPC / 30 mol% DOPG, room temperature (23 ± 2 °C); particle densities 0.03-0.8 µm^-2; monomers (33 kDa) not quantitatively detectable.

For orientation: stoichiometry N means the number of molecules, sites or subunits per partner or assembly.

Consider “MinD (from UniProt P0AEZ3 1-270) (natural protein)”, for which the stoichiometry N is 2 in the data set with MinD (Escherichia coli) [1]; 3 and 4 with MinD (Escherichia coli) [2].

B1: MinE (natural protein, Escherichia coli, UniProt P0A734 1-88, looked up)
chain: MALLDFFLSRKKNTANIAKERLQIIVAERRRSDAEPHYLPQLRKDILEVICKYVQIDPEMVTVQLEQKDGDISILELNVTLPEAEELK
notes: MinE of the Escherichia coli Min system; A purification tag is probably present (surmise)
For the molecule B1, in data set [3], the binding result was “binds”.

B2: MinD D40A (natural protein, Escherichia coli, UniProt P0AEZ3 1-270, looked up)
chain: MARIIVVTSGKGGVGKTTSSAAIATGLAQKGKKTVVIDFAIGLRNLDLIMGCERRVVYDFVNVIQGDATLNQALIKDKRTENLYILPASQTRDKDALTREGVAKVLDDLKAMDFEFIVCDSPAGIETGALMALYFADEAIITTNPEVSSVRDSDRILGILASKSRRAENGEEPIKEHLLLTRYNPGRVSRGDMLSMEDVLEILRIKLVGVIPEDQSVLRASNQGEPVILDINADAGKAYADTVERLLGEERPFRFIEEEKKGFLKRLFGG
notes: ATPase MinD of the Escherichia coli Min system with D40A (impaired ATP hydrolysis); A purification tag is probably present (surmise); also called D40A mutant; MinD mutant (D40A)
Take B2: in data set [4], the “stoichiometry N” value was 2 and 4.
